{
  "source": "IntAct's records for PubMed 23954233",
  "parents": {"B1": {"name": "F-box DNA helicase 1 (Homo sapiens), Q8NFZ0 (parent)", "chain": "MRRFKRKHLTAIDCQHLARSHLAVTQPFGQRWTNRDPNHGLYPKPRTKRGSRGQGSQRCIPEFFLAGKQPCTNDMAKSNSVGQDSCQDSEGDMIFPAESSCALPQEGSAGPGSPGSAPPSRKRSWSSEEESNQATGTSRWDGVSKKAPRHHLSVPCTRPREARQEAEDSTSRLSAESGETDQDAGDVGPDPIPDSYYGLLGTLPCQEALSHICSLPSEVLRHVFAFLPVEDLYWNLSLVCHLWREIISDPLFIPWKKLYHRYLMNEEQAVSKVDGILSNCGIEKESDLCVLNLIRYTATTKCSPSVDPERVLWSLRDHPLLPEAEACVRQHLPDLYAAAGGVNIWALVAAVVLLSSSVNDIQRLLFCLRRPSSTVTMPDVTETLYCIAVLLYAMREKGINISNRIHYNIFYCLYLQENSCTQATKVKEEPSVWPGKKTIQLTHEQQLILNHKMEPLQVVKIMAFAGTGKTSTLVKYAEKWSQSRFLYVTFNKSIAKQAERVFPSNVICKTFHSMAYGHIGRKYQSKKKLNLFKLTPFMVNSVLAEGKGGFIRAKLVCKTLENFFASADEELTIDHVPIWCKNSQGQRVMVEQSEKLNGVLEASRLWDNMRKLGECTEEAHQMTHDGYLKLWQLSKPSLASFDAIFVDEAQDCTPAIMNIVLSQPCGKIFVGDPHQQIYTFRGAVNALFTVPHTHVFYLTQSFRFGVEIAYVGATILDVCKRVRKKTLVGGNHQSGIRGDAKGQVALLSRTNANVFDEAVRVTEGEFPSRIHLIGGIKSFGLDRIIDIWILLQPEEERRKQNLVIKDKFIRRWVHKEGFSGFKRYVTAAEDKELEAKIAVVEKYNIRIPELVQRIEKCHIEDLDFAEYILGTVHKAKGLEFDTVHVLDDFVKVPCARHNLPQLPHFRVESFSEDEWNLLYVAVTRAKKRLIMTKSLENILTLAGEYFLQAELTSNVLKTGVVRCCVGQCNNAIPVDTVLTMKKLPITYSNRKENKGGYLCHSCAEQRIGPLAFLTASPEQVRAMERTVENIVLPRHEALLFLVF"}},
  "data": [
    {"variants_of": "B1", "settings": "with src_human SRC", "values": [
      {"variant": "G774R", "effect of a mutation on the interaction": "decreasing interaction"}
    ]},
    {"variants_of": "B1", "settings": "with src_human SRC", "remark": "another data set of the same source", "values": [
      {"variant": "I1030F", "effect of a mutation on the interaction": "disrupting interaction"}
    ]}
  ]
}
